Paper PMC6208348 (Nature Communications, 2018)
Non-standard residues stand in square brackets, D forms with d. No end group written: not given here. pY = N[C@@H](Cc1ccc(OP(=O)(O)O)cc1)C(=O)O

Biological target: wild-type Src SH2 domain (UniProt P12931 151-248)
Test: fluorescence polarisation
Details: both partners purified

How did the Kd turn out when GG[pY]GG (source: synthetic peptide) [mini peptide GGpYGG] was run?
The Kd was greater than 50 µM.
